This assay deals with actin filaments (rabbit skeletal muscle actin) (rabbit) (UniProt P68135). Briefly: co-sedimentation.

With “Rng2CHD fused with GFP to its N-terminus via a 16-residue linker (GFP-Rng2CHD) (domain or fragment)”, the stoichiometry N (in general, a count of units in the complex or per binding partner) was 1.

In the case of “calponin-homology actin binding domain of fission yeast IQGAP Rng2 (Rng2CHD) (domain or fragment)”, the Kd (as a rule, the constant that tells how readily two partners part at equilibrium) came out at 920 nM.

These data come from article doi:10.1101/2020.04.14.041046.
